# T1: RpnAL (E. coli, UniProt P31667 1-292)
# T1 sequence (looked up): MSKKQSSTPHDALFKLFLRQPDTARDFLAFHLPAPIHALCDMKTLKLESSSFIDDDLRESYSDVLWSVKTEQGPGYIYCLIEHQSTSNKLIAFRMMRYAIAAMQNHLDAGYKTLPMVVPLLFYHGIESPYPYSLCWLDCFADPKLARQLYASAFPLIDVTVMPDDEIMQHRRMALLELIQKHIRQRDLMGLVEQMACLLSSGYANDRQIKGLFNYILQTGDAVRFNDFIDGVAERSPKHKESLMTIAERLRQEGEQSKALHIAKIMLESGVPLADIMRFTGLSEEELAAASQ
# B1: RpnAS (domain or fragment, E. coli, UniProt P31667 244-292, looked up)
# chain: MTIAERLRQEGEQSKALHIAKIMLESGVPLADIMRFTGLSEEELAAASQ
# Tests used:
# [1] = target: T1, RpnAL; assay: SEC-MALS
# [2] = target: the molecule itself; assay: SEC-MALS
binder,measurement,setting,value
B1,stoichiometry N,[1],1 RpnAS per RpnAL (2:2)
same,stoichiometry N,[2],2
